From publication PMC9162458, “Divergent binding mode for a protozoan BRC repeat to RAD51” (Biochemical Journal, 2022)
Ends that are not written are not given here.

Biological target: T1, LiRAD51^ATPase (Leishmania infantum RAD51 ATPase domain, residues 134–386) (Leishmania infantum)
T1 construct: RAD51 of Leishmania infantum, ATPase domain, residues 134-386; Vector pHAT2 (Addgene #112583); No removal of the His-tag is described; also called monomeric LiRAD51^ATPase; LiRAD51 ATPase domain; source: E. coli (T7Express or BL21(DE3)); purified (Ni-NTA, Superdex 75 SEC) for FP and ITC; in lysate for the pull-down
Test: fluorescence polarisation; competition: 5 nM Fluor-NCys-LiBRC1 probe with 500 nM LiRAD51^ATPase, GB1-LiBRC repeats in serial dilutions; KD estimated from the fitted IC50; 50 mM Tris pH 8.0, 150 mM NaCl, 100 mM Li2SO4, 1% BSA, 0.1% Tween-20
Details: both partners purified

Binder	Kd
AAAPPLVPTLFSTASGKPVTVRRESLQKVAERLGDLAA (domain or fragment, not fully specified (N-terminus); also: GB1 fusion) [LiBRC1.3 (LiBRC1 with extended termini, GB1 fusion)]	310 nM
LVPTLFSTASGKPVTVRRESLQKVAERLGDLAAPDME (domain or fragment, not fully specified (N-terminus); also: GB1 fusion) [LiBRC1.2 (LiBRC1 with extended termini, GB1 fusion)]	190 nM
GB1-RVPTLFETGRGKAVTVQKRSLDKAEASMDSLEA-His8 (domain or fragment) [GB1-LiBRC2-His8 (BRC repeat 2 of Leishmania infantum BRCA2 fused to GB1)]	13600 nM
